Test results taken from PMC10397247.

Tests used:
[1] = target: T1, 4H2931-bN; assay: two-hybrid library CCNG1;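 further: natural log of median RNA to DNA barcode read ratio; higher means stronger binding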
T1 chain: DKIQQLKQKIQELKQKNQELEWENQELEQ

[2] = target: T2, 4H796-bN; assay: two-hybrid library CCNG1;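 further: natural log of median RNA to DNA barcode read ratio; higher means stronger binding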
T2 chain: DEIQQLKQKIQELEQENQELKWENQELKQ

[3] = target: T3, 4H3041-bN; assay: two-hybrid library CCNG1;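 further: natural log of median RNA to DNA barcode read ratio; higher means stronger binding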
T3 chain: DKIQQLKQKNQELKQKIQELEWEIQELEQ

[4] = target: T4, 4H2518-bN; assay: two-hybrid library CCNG1;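 further: natural log of median RNA to DNA barcode read ratio; higher means stronger binding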
T4 chain: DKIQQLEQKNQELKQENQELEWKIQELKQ

[5] = target: T5, 4H730-bN; assay: two-hybrid library CCNG1
T5 chain: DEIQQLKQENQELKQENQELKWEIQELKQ

[6] = target: T6, 4H2444-bN; assay: two-hybrid library CCNG1
T6 chain: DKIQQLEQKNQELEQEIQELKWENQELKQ

[7] = target: T7, 4H3364-bN; assay: two-hybrid library CCNG1
T7 chain: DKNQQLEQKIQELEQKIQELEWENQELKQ

[8] = target: T8, 4H3381-bN; assay: two-hybrid library CCNG1
T8 chain: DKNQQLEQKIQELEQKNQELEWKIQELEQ

[9] = target: T9, 4H2760-bN; assay: two-hybrid library CCNG1
T9 chain: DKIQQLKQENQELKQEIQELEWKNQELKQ

[10] = target: T10, 4H932-bN; assay: two-hybrid library CCNG1
T10 chain: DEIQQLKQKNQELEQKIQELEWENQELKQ

[11] = target: T11, 4H349-bN; assay: two-hybrid library CCNG1
T11 chain: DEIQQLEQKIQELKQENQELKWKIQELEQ

[12] = target: T12, 4H235-bN; assay: two-hybrid library CCNG1
T12 chain: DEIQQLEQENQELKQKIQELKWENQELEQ

[13] = target: T13, 4H2585-bN; assay: two-hybrid library CCNG1
T13 chain: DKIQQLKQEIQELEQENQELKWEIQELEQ

[14] = target: T14, 4H2859-bN; assay: two-hybrid library CCNG1
T14 chain: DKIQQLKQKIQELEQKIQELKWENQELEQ

[15] = target: T15, 4H949-bN; assay: two-hybrid library CCNG1
T15 chain: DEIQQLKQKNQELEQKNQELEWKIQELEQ

[16] = target: T16, 4H264-bN; assay: two-hybrid library CCNG1
T16 chain: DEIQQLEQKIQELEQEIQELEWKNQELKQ

[17] = target: T17, 4H3297-bN; assay: two-hybrid library CCNG1
T17 chain: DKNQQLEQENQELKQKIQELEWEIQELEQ

[18] = target: T18, 4H56-bN; assay: two-hybrid library CCNG1
T18 chain: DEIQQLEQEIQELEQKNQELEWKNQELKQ

[19] = target: T19, P6A-bN; assay: two-hybrid library CCNG1
T19 chain: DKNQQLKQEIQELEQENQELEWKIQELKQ

[20] = target: T20, P7A-bN; assay: two-hybrid library CCNG1
T20 chain: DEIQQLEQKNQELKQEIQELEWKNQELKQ

[21] = target: T21, P9A-bN; assay: two-hybrid library CCNG1
T21 chain: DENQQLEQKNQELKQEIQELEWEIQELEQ

[22] = target: T22, P8A-bN; assay: two-hybrid library CCNG1
T22 chain: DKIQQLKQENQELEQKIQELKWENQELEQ

[23] = target: T23, P5A-bN; assay: two-hybrid library CCNG1
T23 chain: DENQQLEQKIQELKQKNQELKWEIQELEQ

[24] = target: T24, P5A-bS; assay: two-hybrid library CCNG1
T24 chain: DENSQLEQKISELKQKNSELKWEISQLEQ

[25] = target: T25, P7A-bS; assay: two-hybrid library CCNG1
T25 chain: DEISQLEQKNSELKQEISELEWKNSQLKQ

[26] = target: T26, P9A-bS; assay: two-hybrid library CCNG1
T26 chain: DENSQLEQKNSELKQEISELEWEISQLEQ

[27] = target: T27, P4A-bS; assay: two-hybrid library CCNG1
T27 chain: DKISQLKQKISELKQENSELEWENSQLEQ

[28] = target: T28, P8A-bS; assay: two-hybrid library CCNG1
T28 chain: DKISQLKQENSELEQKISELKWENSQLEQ

[29] = target: T29, P3A-bS; assay: two-hybrid library CCNG1
T29 chain: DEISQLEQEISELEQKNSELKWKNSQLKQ

[30] = target: T30, 4H3905-AA; assay: two-hybrid library CCmax; settings: mean of both orientations
T30 chain: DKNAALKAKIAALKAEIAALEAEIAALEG

[31] = target: T31, 4H2705-AA; assay: two-hybrid library CCmax; settings: mean of both orientations
T31 chain: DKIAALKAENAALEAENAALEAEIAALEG

[32] = target: T32, 4H337-AA; assay: two-hybrid library CCmax; settings: mean of both orientations
T32 chain: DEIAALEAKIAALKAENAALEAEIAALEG

[33] = target: T33, 4H3587-AA; assay: two-hybrid library CCmax; settings: mean of both orientations
T33 chain: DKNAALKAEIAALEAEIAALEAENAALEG

[34] = target: T34, 4H451-AA; assay: two-hybrid library CCmax; settings: mean of both orientations
T34 chain: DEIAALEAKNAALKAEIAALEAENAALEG

[35] = target: GCN2_T; assay: two-hybrid library CCmax; settings: mean of both orientations
[36] = target: T35, O11-AA; assay: two-hybrid library CCmax; settings: mean of both orientations
T35 chain: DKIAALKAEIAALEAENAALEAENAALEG

[37] = target: T36, 4H2622-AA; assay: two-hybrid library CCmax
T36 chain: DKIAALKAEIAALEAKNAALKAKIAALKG

[38] = target: T37, 4H2736-AA; assay: two-hybrid library CCmax; settings: mean of both orientations
T37 chain: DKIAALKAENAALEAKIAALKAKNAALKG

[39] = target: T38, 4H_BCR; assay: two-hybrid library CCmax; settings: mean of both orientations
T38 chain: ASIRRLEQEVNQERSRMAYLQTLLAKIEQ

[40] = target: T39, 4H2888-AA; assay: two-hybrid library CCmax; settings: mean of both orientations
T39 chain: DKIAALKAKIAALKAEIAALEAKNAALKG

[41] = target: T40, O13-AA; assay: two-hybrid library CCmax; settings: mean of both orientations
T40 chain: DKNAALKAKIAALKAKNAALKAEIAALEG

[42] = target: 4H_GCN4; assay: two-hybrid library CCmax; settings: mean of both orientations
Chain of 4H_GCN4 (chain, as listed by the source): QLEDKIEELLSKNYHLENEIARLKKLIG

[43] = target: T41, 4H384-AA; assay: two-hybrid library CCmax; settings: mean of both orientations
T41 chain: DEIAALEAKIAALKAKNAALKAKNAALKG

[44] = target: T42, 4H4038-AA; assay: two-hybrid library CCmax; settings: mean of both orientations
T42 chain: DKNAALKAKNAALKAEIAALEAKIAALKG

[45] = target: T43, 4H3625-AA; assay: two-hybrid library CCmax; settings: mean of both orientations
T43 chain: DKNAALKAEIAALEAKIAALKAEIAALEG

[46] = target: T44, O14-AA; assay: two-hybrid library CCmax; settings: mean of both orientations
T44 chain: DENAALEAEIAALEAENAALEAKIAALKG

[47] = target: T45, 4H510-AA; assay: two-hybrid library CCmax; settings: mean of both orientations
T45 chain: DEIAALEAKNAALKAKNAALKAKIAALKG

[48] = target: T46, 4H_APH; assay: two-hybrid library CCmax; settings: mean of both orientations
T46 chain: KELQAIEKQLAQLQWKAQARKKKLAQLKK

[49] = target: T47, 4H43-AA; assay: two-hybrid library CCmax; settings: mean of both orientations
T47 chain: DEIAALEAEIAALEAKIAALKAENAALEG

[50] = target: T48, 4H3590-AA; assay: two-hybrid library CCmax; settings: mean of both orientations
T48 chain: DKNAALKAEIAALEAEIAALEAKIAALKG

[51] = target: T49, 4H3049-AA; assay: two-hybrid library CCmax; settings: mean of both orientations
T49 chain: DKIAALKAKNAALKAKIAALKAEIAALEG

B1: 4H235-bN (peptide)
chain: DEIQQLEQENQELKQKIQELKWENQELEQ
For B1, the interaction score [1] was -1.14, the interaction score [2] was -0.458 and the interaction score [3] was -0.319. The interaction score [4] was -0.299, the interaction score [5] was -1.94 and the interaction score [6] was -0.884. It also gave an interaction score [7] of 0.709, an interaction score [8] of -1.48 and an interaction score [9] of 2.03. It also gave an interaction score [10] of -0.682, an interaction score [11] of -0.0107 and an interaction score [12] of 0.562. For the same binder, the interaction score [13] was -0.77, the interaction score [14] was 0.00948 and the interaction score [15] was -0.438. It also gave an interaction score [16] of -0.206, an interaction score [17] of -0.527 and an interaction score [18] of -0.626.

B2: P5A-bN (peptide)
chain: DENQQLEQKIQELKQKNQELKWEIQELEQ
B2 showed an interaction score [19] of 1.62, an interaction score [20] of -1.53 and an interaction score [21] of -1.14. It also gave an interaction score [22] of -0.311 and an interaction score [23] of -1.81.

B3: P3A-bS (peptide)
chain: DEISQLEQEISELEQKNSELKWKNSQLKQ
With B3 the interaction score [24] was -0.938, the interaction score [25] was -0.377 and the interaction score [26] was 0.297. For the same binder, the interaction score [27] was 1.45, the interaction score [28] was -0.303 and the interaction score [29] was -1.29.

B4: 4H2622-AA (peptide)
chain: DKIAALKAEIAALEAKNAALKAKIAALKG
Work on B4 yielded an interaction score [30] of 1.43, an interaction score [31] of 0.956 and an interaction score [32] of 2.35. For the same binder, the interaction score [33] was 0.659, the interaction score [34] was -0.0617 and the interaction score [35] was 0.0302. For the same binder, the interaction score [36] was 1.62, the interaction score [37] was 1.07 and the interaction score [38] was -0.125. It also gave an interaction score [39] of -0.274, an interaction score [40] of 0.116 and an interaction score [41] of 0.551. The interaction score [42] was 0.309, the interaction score [43] was -1.12 and the interaction score [44] was -1.2. The interaction score [45] was 1.6, the interaction score [46] was 2.2 and the interaction score [47] was -0.508. The interaction score [48] was -1.87, the interaction score [49] was 1.57 and the interaction score [50] was 0.684. It also gave an interaction score [51] of 0.212.
